Experimental data reported in paper PMC11931385, “Structural and functional analysis of cancer-associated missense variants in the retinoblastoma protein pocket domain” (The Journal of Biological Chemistry, 2025).
No end group written: not given here. TMR = tetramethyl rhodamine dye

T1: Rb^P H673P (human, UniProt P06400 380-788, H673P)
T1 construct: also called variant 54
T1 sequence (looked up): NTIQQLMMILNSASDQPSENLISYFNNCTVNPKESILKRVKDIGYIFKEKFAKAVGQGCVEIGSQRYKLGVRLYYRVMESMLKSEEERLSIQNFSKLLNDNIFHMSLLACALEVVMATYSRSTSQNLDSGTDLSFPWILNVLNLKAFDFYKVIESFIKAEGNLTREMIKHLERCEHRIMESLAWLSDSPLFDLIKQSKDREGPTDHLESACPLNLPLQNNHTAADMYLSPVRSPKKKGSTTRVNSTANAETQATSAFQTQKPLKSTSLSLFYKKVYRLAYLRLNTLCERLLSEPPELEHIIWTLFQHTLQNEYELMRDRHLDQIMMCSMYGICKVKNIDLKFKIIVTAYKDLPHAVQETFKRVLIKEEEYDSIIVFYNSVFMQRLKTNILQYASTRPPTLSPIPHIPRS

T2: Rb^P H673Y (human, UniProt P06400 380-788, H673Y)
T2 construct: also called variant 55
T2 sequence (looked up): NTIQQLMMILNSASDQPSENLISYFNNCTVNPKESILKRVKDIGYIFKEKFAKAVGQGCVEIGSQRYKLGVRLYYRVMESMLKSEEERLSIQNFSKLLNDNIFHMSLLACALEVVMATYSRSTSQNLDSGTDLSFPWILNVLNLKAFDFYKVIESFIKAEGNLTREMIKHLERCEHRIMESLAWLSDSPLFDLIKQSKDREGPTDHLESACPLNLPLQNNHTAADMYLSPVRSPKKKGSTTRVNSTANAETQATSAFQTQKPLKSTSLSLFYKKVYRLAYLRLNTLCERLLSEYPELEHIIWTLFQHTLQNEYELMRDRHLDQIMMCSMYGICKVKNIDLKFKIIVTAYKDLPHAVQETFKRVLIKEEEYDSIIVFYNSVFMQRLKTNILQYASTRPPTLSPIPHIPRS

T3: Rb^P Q504E (human, UniProt P06400 380-788, Q504E)
T3 construct: also called variant 19
T3 sequence (looked up): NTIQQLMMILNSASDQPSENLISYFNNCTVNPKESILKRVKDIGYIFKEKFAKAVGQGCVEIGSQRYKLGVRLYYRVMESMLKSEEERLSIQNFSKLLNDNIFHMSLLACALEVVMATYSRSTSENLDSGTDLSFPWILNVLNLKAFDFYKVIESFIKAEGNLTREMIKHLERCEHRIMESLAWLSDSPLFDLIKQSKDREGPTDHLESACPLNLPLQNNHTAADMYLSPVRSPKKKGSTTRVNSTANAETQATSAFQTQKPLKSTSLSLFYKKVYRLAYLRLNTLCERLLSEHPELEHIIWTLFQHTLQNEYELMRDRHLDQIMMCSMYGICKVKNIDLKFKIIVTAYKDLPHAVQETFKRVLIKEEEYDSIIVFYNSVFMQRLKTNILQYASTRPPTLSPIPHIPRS

T4: Rb^P S474R (human, UniProt P06400 380-788, S474R)
T4 construct: also called variant 13
T4 sequence (looked up): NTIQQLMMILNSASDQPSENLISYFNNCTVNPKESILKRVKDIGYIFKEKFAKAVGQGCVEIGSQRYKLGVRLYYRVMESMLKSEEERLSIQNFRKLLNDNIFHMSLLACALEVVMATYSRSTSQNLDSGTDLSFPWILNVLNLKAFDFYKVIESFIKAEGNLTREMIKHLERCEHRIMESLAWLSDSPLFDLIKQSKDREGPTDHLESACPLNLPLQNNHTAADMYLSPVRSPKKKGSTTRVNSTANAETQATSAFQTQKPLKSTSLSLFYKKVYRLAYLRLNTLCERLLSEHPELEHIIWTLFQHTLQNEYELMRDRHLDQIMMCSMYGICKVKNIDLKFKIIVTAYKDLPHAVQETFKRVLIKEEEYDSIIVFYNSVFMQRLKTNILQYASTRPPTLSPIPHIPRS

T5: Rb^P A525G (human, UniProt P06400 380-788, A525G)
T5 construct: also called variant 20
T5 sequence (looked up): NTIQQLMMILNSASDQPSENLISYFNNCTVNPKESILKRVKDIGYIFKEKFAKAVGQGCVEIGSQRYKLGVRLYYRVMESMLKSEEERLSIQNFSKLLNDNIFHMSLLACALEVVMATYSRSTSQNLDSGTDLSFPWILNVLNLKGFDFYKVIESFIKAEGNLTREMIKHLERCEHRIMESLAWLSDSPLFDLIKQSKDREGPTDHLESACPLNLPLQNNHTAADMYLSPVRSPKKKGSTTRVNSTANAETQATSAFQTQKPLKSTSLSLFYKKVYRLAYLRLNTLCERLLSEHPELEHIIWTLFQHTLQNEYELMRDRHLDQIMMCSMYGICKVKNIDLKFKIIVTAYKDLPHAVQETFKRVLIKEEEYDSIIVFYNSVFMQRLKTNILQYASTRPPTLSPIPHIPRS


Legend:
Assay in all cases: fluorescence polarisation; 37 °C, after the 25 °C reading ramped over 7 min to 37 °C and 2 min incubation; unlabeled Rb^P against 1.5 nM TMR-E2F1^TD or 7.5 nM TMR-E7^LxCxE; 25 mM Tris pH 8.0, 200 mM NaCl, 1 mM DTT, 0.1% Tween-20; apparent Kd
Conditions in all cases: both partners purified
[1] = target: T1, Rb^P H673P
[2] = target: T2, Rb^P H673Y
[3] = target: T3, Rb^P Q504E
[4] = target: T4, Rb^P S474R
[5] = target: T5, Rb^P A525G

Row | Binder | Kd [1] [nM] | Kd [2] [nM] | Kd [3] [nM] | Kd [4] [nM] | Kd [5] [nM]
1 | {TMR}-GEGIRDLFDCDFGDLTPLD (also called E2F^TD; source: synthetic peptide, bought: GenScript) [TMR-E2F1^TD, peptide of the E2F1 transactivation domain] | 98 | 66 | 33 | 580 | 65
2 | DLYCYEQLN (also: TMR label, position not given here, source: synthetic peptide, bought: GenScript) [TMR-E7^LxCxE, LxCxE peptide of the E7 oncoprotein from HPV] | 83 | 29 | 11 | 15 | 52
